Molecular target: EGFR-His (human ECD) (human)
Test: BLI

Which Kd does the source give for Cetuximab Fab-His here?
The Kd was 1.69 nM.

Source: US20260297200
